Paper PMC11017283 (Journal of Lipid Research, 2024)

Biological target: T1, mouse LPL (p.R324A) (mouse, UniProt P11152 28-474, p.R324A)
T1 sequence (looked up): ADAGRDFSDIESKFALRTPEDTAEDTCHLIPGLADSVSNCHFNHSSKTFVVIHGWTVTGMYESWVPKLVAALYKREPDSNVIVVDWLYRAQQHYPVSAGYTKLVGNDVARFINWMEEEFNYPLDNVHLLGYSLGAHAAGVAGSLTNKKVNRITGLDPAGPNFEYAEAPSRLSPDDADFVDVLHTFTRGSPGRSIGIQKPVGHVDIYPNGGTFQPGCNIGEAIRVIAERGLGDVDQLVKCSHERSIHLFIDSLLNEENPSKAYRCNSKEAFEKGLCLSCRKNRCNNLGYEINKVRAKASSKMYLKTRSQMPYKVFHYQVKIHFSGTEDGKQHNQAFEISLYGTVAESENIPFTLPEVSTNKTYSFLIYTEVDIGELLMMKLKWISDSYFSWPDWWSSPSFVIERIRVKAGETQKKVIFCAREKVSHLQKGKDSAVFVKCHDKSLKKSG
Assay: native gel or EMSA

binding result: binds
B1: recombinant human GPIHBP1, soluble (residues 1-131) (domain or fragment, UniProt Q8IV16 21-151, looked up)
chain: QTQQEEEEEDEDHGPDDYDEEDEDEVEEEETNRLPGGRSRVLLRCYTCKSLPRDERCNLTQNCSHGQTCTTLIAHGNTESGLLTTHSTWCTDSCQPITKTVEGTQVTMTCCQSSLCNVPPWQSSRVQDPTG
